Experimental data taken from article PMC8016844, “Grb2 binding induces phosphorylation-independent activation of Shp2” (Communications Biology, 2021).

Molecular target: T1, Shp2 N-terminal SH2 domain (Shp2_(NSH2)) (UniProt Q06124 6-102)
T1 construct: Shp2 (PTPN11), N-terminal SH2 domain; Atto 488 labelled in MST; uniformly 15N-labelled in the NMR titration; Perturbed residues up to Y100 are named, so the construct reaches at least residue 100; also called Shp2-NSH2 domain; source: E. coli BL21 (DE3), pET28b, purified (Talon buffers, Superdex SD75)
T1 sequence (looked up): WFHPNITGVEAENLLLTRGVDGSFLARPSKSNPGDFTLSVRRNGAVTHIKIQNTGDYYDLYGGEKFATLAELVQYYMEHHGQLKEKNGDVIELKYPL
Test: MST; target protein labelled with Atto 488 NHS ester, 100 nM; unlabelled ligand serially diluted; Monolith NT.115; 25 °C; 20 mM HEPES pH 7.5, 150 mM NaCl, 0.5 mM TCEP, 0.005% Tween 20
Conditions: both partners purified

Kd: 422 ± 21.5 µM
B1: isolated NSH3 domain of Grb2 (Grb2_(NSH3)) (domain or fragment)
chain: MEAIAKYDFKATADDELSFKRGDILKVLNEECDQNWYKAELNGKDGFIPKNYIEMKPH
